Data reported in publication PMC7893173.

Tests used:
[1] = biological target: HSV-1 nuclear egress complex NEC220 (UL31 1–306 with UL34 1–220) (herpes simplex virus type 1) (UniProt P10215)
[2] = biological target: HSV-1 nuclear egress complex NEC220 (UL31 1–306 with UL34 1–220) (herpes simplex virus type 1) (UniProt P10215); remark: listed apart in the source
[3] = biological target: HSV-1 nuclear egress complex NEC220 (UL31 1–306 with UL34 1–220) (herpes simplex virus type 1) (UniProt P10215); remark: listed apart in the source

## HSV-1 UL25∆44 Q72A (from UniProt P10209 45-580) (domain or fragment)
[1]
  inhibition of NEC220-mediated budding of giant unilamellar vesicles in vitro (1 μM NEC220; not inhibitory at NEC:UL25 1:1, value at 1:10) (% reduction in budding): 90

## UL25^native(45–94) peptide (from UniProt P10209 45-94)
[2]
  inhibition of NEC220-mediated budding of giant unilamellar vesicles in vitro (1 μM NEC220; NEC:peptide 1:0.1, 1:0.3, 1:0.6, 1:1 and 1:10; maximal effect at 1:1) (% reduction in budding): 75

B1: (EAEKAAK)7EAEK peptide (peptide)
peptide: EAEKAAKEAEKAAKEAEKAAKEAEKAAKEAEKAAKEAEKAAKEAEKAAKEAEK
[3]
  inhibition of NEC220-mediated budding of giant unilamellar vesicles in vitro (1 μM NEC220; not inhibitory at NEC:peptide 1:1, value at 1:10) (% reduction in budding): 50
